Assay results as given in US20110171242A1.

Molecular target: LTβR (whole, in cells) (human) (UniProt P36941)
Assay: cell-based or functional assay

- IC50 for inhibition of HCMV pp28 expression (western blot): 1 nM
- inhibition of the cytopathic effect of HCMV, against LTα and LIGHT: 10 fold
Substance: recombinant soluble LTα1β2 (from UniProt P01374 35-205; Q06643 49-244) (ligand)
